# Biological target: the molecule itself
# Assay: negative-stain TEM + dynamic light scattering
protein,measurement,value
cowpea chlorotic mottle virus (CCMV) capsid protein (natural protein) MSTVGTGKLTRAQRRAAARKNKRNTRVVQPVIVEPIASGQGKAIKAWTGYSVSKWTASCAAAEAKVTSAITISLPNELSSERNKQLKVGRVLLWLGLLPSVSGTVKSCVTETQTTAAASFQVALAVADNSKDVVAAMYPEAFKGITLEQLTADLTIYLYSSAALTEGDVIVHLEVEHVRPTFDDSFTPVY,stoichiometry N,60

# From paper PMC5330652 (Journal of the American Chemical Society, 2017)
